Data as given in patent publication US7687457B2, “Cyclic molecular framework and derivatives thereof” (The University of Queensland, priority 1999, dated 2010).

Molecular target: N-type voltage-sensitive calcium channels (receptors in rat brain membrane) (rat) (UniProt Q02294)
Sequence of UniProt Q02294 (Q02294 whole entry): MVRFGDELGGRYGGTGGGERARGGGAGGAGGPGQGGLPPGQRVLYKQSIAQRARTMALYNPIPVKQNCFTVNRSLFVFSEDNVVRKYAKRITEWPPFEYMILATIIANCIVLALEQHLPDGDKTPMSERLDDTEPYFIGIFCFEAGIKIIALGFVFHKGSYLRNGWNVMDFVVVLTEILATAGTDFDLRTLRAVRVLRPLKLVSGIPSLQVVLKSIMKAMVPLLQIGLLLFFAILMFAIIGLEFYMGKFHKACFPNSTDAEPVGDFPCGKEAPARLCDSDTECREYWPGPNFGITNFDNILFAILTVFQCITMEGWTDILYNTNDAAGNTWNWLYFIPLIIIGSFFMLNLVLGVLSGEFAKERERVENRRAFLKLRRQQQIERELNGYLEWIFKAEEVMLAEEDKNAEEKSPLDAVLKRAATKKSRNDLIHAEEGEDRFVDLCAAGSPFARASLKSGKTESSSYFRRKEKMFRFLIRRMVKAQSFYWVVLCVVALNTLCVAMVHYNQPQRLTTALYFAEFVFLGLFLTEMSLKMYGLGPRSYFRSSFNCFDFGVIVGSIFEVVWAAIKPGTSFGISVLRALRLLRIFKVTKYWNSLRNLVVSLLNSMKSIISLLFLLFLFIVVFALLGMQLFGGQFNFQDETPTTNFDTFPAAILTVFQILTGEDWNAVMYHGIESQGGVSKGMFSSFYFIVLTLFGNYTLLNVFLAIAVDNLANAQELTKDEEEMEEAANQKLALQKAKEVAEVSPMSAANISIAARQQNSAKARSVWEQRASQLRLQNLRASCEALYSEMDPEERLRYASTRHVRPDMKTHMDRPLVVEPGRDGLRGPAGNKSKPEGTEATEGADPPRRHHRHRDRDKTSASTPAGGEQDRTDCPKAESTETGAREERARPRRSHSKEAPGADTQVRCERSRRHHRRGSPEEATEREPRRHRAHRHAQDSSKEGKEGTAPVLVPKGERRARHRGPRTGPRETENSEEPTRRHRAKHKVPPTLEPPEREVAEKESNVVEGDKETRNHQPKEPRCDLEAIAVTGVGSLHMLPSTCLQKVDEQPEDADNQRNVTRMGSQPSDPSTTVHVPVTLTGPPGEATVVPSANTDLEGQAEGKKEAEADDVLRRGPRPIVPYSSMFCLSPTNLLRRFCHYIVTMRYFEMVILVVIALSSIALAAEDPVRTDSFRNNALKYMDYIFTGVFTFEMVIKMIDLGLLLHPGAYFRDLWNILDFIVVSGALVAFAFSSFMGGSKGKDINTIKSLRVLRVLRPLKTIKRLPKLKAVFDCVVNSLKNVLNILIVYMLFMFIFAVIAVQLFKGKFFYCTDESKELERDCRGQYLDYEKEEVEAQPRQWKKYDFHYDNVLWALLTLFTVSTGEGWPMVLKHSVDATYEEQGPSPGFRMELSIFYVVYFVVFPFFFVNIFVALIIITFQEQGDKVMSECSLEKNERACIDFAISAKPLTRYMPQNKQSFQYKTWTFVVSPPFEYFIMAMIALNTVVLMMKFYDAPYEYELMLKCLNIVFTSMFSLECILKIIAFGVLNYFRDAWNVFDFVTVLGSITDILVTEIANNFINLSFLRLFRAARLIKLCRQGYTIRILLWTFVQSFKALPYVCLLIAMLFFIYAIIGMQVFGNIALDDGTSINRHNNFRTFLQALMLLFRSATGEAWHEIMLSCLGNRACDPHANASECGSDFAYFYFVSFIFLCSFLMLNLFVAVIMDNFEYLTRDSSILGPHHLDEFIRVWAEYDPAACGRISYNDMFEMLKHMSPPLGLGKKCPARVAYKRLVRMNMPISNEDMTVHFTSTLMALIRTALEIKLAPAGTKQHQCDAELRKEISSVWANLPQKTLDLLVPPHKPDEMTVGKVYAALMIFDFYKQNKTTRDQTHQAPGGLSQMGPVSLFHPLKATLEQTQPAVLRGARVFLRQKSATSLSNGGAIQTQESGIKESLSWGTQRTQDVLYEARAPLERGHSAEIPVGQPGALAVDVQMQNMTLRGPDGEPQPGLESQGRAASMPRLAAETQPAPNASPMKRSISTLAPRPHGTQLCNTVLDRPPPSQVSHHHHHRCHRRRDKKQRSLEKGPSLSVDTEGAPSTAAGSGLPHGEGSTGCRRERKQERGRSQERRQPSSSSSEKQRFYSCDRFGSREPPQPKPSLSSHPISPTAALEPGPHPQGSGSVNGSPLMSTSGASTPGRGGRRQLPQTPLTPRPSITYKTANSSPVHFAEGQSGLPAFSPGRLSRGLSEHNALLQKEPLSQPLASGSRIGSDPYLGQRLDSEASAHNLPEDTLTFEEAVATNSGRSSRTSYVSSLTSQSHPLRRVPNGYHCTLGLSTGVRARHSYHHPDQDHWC

With “ω-conotoxin MVIIA (from UniProt P05484 46-70) (peptide)” as the substance, how does the EC50 read?
The EC50 was 0.044 nM.
